Reference: PMC6355003, “New interfaces on MiD51 for Drp1 recruitment and regulation” (PLoS ONE, 2019)

B1: Drp1 (dynamin-related protein Drp1), wild type (natural protein, UniProt O00429-4 1-699, looked up)
chain: MEALIPVINKLQDVFNTVGADIIQLPQIVVVGTQSSGKSSVLESLVGRDLLPRGTGIVTRRPLILQLVHVSQEDKRKTTGEENGVEAEEWGKFLHTKNKLYTDFDEIRQEIENETERISGNNKGVSPEPIHLKIFSPNVVNLTLVDLPGMTKVPVGDQPKDIELQIRELILRFISNPNSIILAVTAANTDMATSEALKISREVDPDGRRTLAVITKLDLMDAGTDAMDVLMGRVIPVKLGIIGVVNRSQLDINNKKSVTDSIRDEYAFLQKKYPSLANRNGTKYLARTLNRLLMHHIRDCLPELKTRINVLAAQYQSLLNSYGEPVDDKSATLLQLITKFATEYCNTIEGTAKYIETSELCGGARICYIFHETFGRTLESVDPLGGLNTIDILTAIRNATGPRPALFVPEVSFELLVKRQIKRLEEPSLRCVELVHEEMQRIIQHCSNYSTQELLRFPKLHDAIVEVVTCLLRKRLPVTNEMVHNLVAIELAYINTKHPDFADACGLMNNNIEEQRRNRLARELPSAVSRDKVASGGGGVGDGVQEPTTGNWRGMLKTSKAEELLAEEKSKPIPIMPASPQKGHAVNLLDVPVPVARKLSAREQRDCEVIERLIKSYFLIVRKNIQDSVPKAVMHFLVNHVKDTLQSELVGQLYKSSLLDDLLTESEDMAQRRKEAADMLKALQGASQIIAEIRETHLW
notes: Drp1, GenBank NM_005690; also called wild-type Drp1; source: E. coli Rosseta (DE3), purified (Ni-NTA, anion exchange, size-exclusion chromatography)
B2: Drp1 S600D (natural protein, UniProt O00429-4 1-699, looked up)
chain: MEALIPVINKLQDVFNTVGADIIQLPQIVVVGTQSSGKSSVLESLVGRDLLPRGTGIVTRRPLILQLVHVSQEDKRKTTGEENGVEAEEWGKFLHTKNKLYTDFDEIRQEIENETERISGNNKGVSPEPIHLKIFSPNVVNLTLVDLPGMTKVPVGDQPKDIELQIRELILRFISNPNSIILAVTAANTDMATSEALKISREVDPDGRRTLAVITKLDLMDAGTDAMDVLMGRVIPVKLGIIGVVNRSQLDINNKKSVTDSIRDEYAFLQKKYPSLANRNGTKYLARTLNRLLMHHIRDCLPELKTRINVLAAQYQSLLNSYGEPVDDKSATLLQLITKFATEYCNTIEGTAKYIETSELCGGARICYIFHETFGRTLESVDPLGGLNTIDILTAIRNATGPRPALFVPEVSFELLVKRQIKRLEEPSLRCVELVHEEMQRIIQHCSNYSTQELLRFPKLHDAIVEVVTCLLRKRLPVTNEMVHNLVAIELAYINTKHPDFADACGLMNNNIEEQRRNRLARELPSAVSRDKVASGGGGVGDGVQEPTTGNWRGMLKTSKAEELLAEEKSKPIPIMPASPQKGHAVNLLDVPVPVARKLDAREQRDCEVIERLIKSYFLIVRKNIQDSVPKAVMHFLVNHVKDTLQSELVGQLYKSSLLDDLLTESEDMAQRRKEAADMLKALQGASQIIAEIRETHLW
notes: Drp1, GenBank NM_005690; S600 is S637 in Drp1 isoform 1 (printed); also called phosphorylation site mutant (related to S637 in Drp1 isoform 1); source: E. coli Rosseta (DE3), purified (Ni-NTA, anion exchange, size-exclusion chromatography)
B3: Drp1 K38A (natural protein, UniProt O00429-4 1-699, looked up)
chain: MEALIPVINKLQDVFNTVGADIIQLPQIVVVGTQSSGASSVLESLVGRDLLPRGTGIVTRRPLILQLVHVSQEDKRKTTGEENGVEAEEWGKFLHTKNKLYTDFDEIRQEIENETERISGNNKGVSPEPIHLKIFSPNVVNLTLVDLPGMTKVPVGDQPKDIELQIRELILRFISNPNSIILAVTAANTDMATSEALKISREVDPDGRRTLAVITKLDLMDAGTDAMDVLMGRVIPVKLGIIGVVNRSQLDINNKKSVTDSIRDEYAFLQKKYPSLANRNGTKYLARTLNRLLMHHIRDCLPELKTRINVLAAQYQSLLNSYGEPVDDKSATLLQLITKFATEYCNTIEGTAKYIETSELCGGARICYIFHETFGRTLESVDPLGGLNTIDILTAIRNATGPRPALFVPEVSFELLVKRQIKRLEEPSLRCVELVHEEMQRIIQHCSNYSTQELLRFPKLHDAIVEVVTCLLRKRLPVTNEMVHNLVAIELAYINTKHPDFADACGLMNNNIEEQRRNRLARELPSAVSRDKVASGGGGVGDGVQEPTTGNWRGMLKTSKAEELLAEEKSKPIPIMPASPQKGHAVNLLDVPVPVARKLSAREQRDCEVIERLIKSYFLIVRKNIQDSVPKAVMHFLVNHVKDTLQSELVGQLYKSSLLDDLLTESEDMAQRRKEAADMLKALQGASQIIAEIRETHLW
notes: Drp1, GenBank NM_005690; also called K38A mutant of Drp1; dominant-negative GTPase mutation K38A; source: E. coli Rosseta (DE3), purified (Ni-NTA, anion exchange, size-exclusion chromatography)
B4: Drp1 S579D (natural protein, UniProt O00429-4 1-699, looked up)
chain: MEALIPVINKLQDVFNTVGADIIQLPQIVVVGTQSSGKSSVLESLVGRDLLPRGTGIVTRRPLILQLVHVSQEDKRKTTGEENGVEAEEWGKFLHTKNKLYTDFDEIRQEIENETERISGNNKGVSPEPIHLKIFSPNVVNLTLVDLPGMTKVPVGDQPKDIELQIRELILRFISNPNSIILAVTAANTDMATSEALKISREVDPDGRRTLAVITKLDLMDAGTDAMDVLMGRVIPVKLGIIGVVNRSQLDINNKKSVTDSIRDEYAFLQKKYPSLANRNGTKYLARTLNRLLMHHIRDCLPELKTRINVLAAQYQSLLNSYGEPVDDKSATLLQLITKFATEYCNTIEGTAKYIETSELCGGARICYIFHETFGRTLESVDPLGGLNTIDILTAIRNATGPRPALFVPEVSFELLVKRQIKRLEEPSLRCVELVHEEMQRIIQHCSNYSTQELLRFPKLHDAIVEVVTCLLRKRLPVTNEMVHNLVAIELAYINTKHPDFADACGLMNNNIEEQRRNRLARELPSAVSRDKVASGGGGVGDGVQEPTTGNWRGMLKTSKAEELLAEEKSKPIPIMPADPQKGHAVNLLDVPVPVARKLSAREQRDCEVIERLIKSYFLIVRKNIQDSVPKAVMHFLVNHVKDTLQSELVGQLYKSSLLDDLLTESEDMAQRRKEAADMLKALQGASQIIAEIRETHLW
notes: Drp1, GenBank NM_005690; S579 is S616 in Drp1 isoform 1 (printed); also called phosphorylation site mutant (related to S616 in Drp1 isoform 1); source: E. coli Rosseta (DE3), purified (Ni-NTA, anion exchange, size-exclusion chromatography)
B5: MiD51^133-463, wild type (protein of the dimerization assays) (domain or fragment, human, UniProt Q9NQG6-1 133-463, looked up)
chain: MSLQEKLLTYYRNRAAIPAGEQARAKQAAVDICAELRSFLRAKLPDMPLRDMYLSGSLYDDLQVVTADHIQLIVPLVLEQNLWSCIPGEDTIMNVPGFFLVRRENPEYFPRGSSYWDRCVVGGYLSPKTVADTFEKVVAGSINWPAIGSLLDYVIRPAPPPEALTLEVQYERDKHLFIDFLPSVTLGDTVLVAKPHRLAQYDNLWRLSLRPAETARLRALDQADSGCRSLCLKILKAICKSTPALGHLTASQLTNVILHLAQEEADWSPDMLADRFLQALRGLISYLEAGVLPSALNPKVNLFAELTPEEIDELGYTLYCSLSEPEVLLQT
notes: the His tag is called N-terminal in the methods and C-terminal in the results; source: E. coli BL21 (DE3), purified
B6: MiD51^133-463 supposed dimer surface mutant (SDM, R169A/R182A/D183A/Q212A/N213A) (domain or fragment, human, UniProt Q9NQG6-1 133-463, looked up)
chain: MSLQEKLLTYYRNRAAIPAGEQARAKQAAVDICAELASFLRAKLPDMPLAAMYLSGSLYDDLQVVTADHIQLIVPLVLEAALWSCIPGEDTIMNVPGFFLVRRENPEYFPRGSSYWDRCVVGGYLSPKTVADTFEKVVAGSINWPAIGSLLDYVIRPAPPPEALTLEVQYERDKHLFIDFLPSVTLGDTVLVAKPHRLAQYDNLWRLSLRPAETARLRALDQADSGCRSLCLKILKAICKSTPALGHLTASQLTNVILHLAQEEADWSPDMLADRFLQALRGLISYLEAGVLPSALNPKVNLFAELTPEEIDELGYTLYCSLSEPEVLLQT
notes: source: E. coli BL21 (DE3), purified
B7: MiD51^133-463 nucleotide binding site mutant (NBM, H201D/R342E/K368E) (domain or fragment, human, UniProt Q9NQG6-1 133-463, looked up)
chain: MSLQEKLLTYYRNRAAIPAGEQARAKQAAVDICAELRSFLRAKLPDMPLRDMYLSGSLYDDLQVVTADDIQLIVPLVLEQNLWSCIPGEDTIMNVPGFFLVRRENPEYFPRGSSYWDRCVVGGYLSPKTVADTFEKVVAGSINWPAIGSLLDYVIRPAPPPEALTLEVQYERDKHLFIDFLPSVTLGDTVLVAKPHRLAQYDNLWRLSLEPAETARLRALDQADSGCRSLCLKILEAICKSTPALGHLTASQLTNVILHLAQEEADWSPDMLADRFLQALRGLISYLEAGVLPSALNPKVNLFAELTPEEIDELGYTLYCSLSEPEVLLQT
notes: as for B6
B8: MiD51^133-463 C165S (domain or fragment, human, UniProt Q9NQG6-1 133-463, looked up)
chain: MSLQEKLLTYYRNRAAIPAGEQARAKQAAVDISAELRSFLRAKLPDMPLRDMYLSGSLYDDLQVVTADHIQLIVPLVLEQNLWSCIPGEDTIMNVPGFFLVRRENPEYFPRGSSYWDRCVVGGYLSPKTVADTFEKVVAGSINWPAIGSLLDYVIRPAPPPEALTLEVQYERDKHLFIDFLPSVTLGDTVLVAKPHRLAQYDNLWRLSLRPAETARLRALDQADSGCRSLCLKILKAICKSTPALGHLTASQLTNVILHLAQEEADWSPDMLADRFLQALRGLISYLEAGVLPSALNPKVNLFAELTPEEIDELGYTLYCSLSEPEVLLQT
notes: as for B6

Columns and labels:
[1] = biological target: the molecule itself; assay: SEC; Superdex 200 PC 3.2/20; purified Drp1 and Drp1 mutants
[2] = biological target: the molecule itself; assay: non-reducing SDS-PAGE; purified MiD51^133-463 in the air; time course, dimer quantified every twenty-four hours; wild type and mutants compared

| Protein | binding result [1] | binding result [2] | other results |
| --- | --- | --- | --- |
| B1 | binds | – | – |
| B2 | binds | – | – |
| B3 | binds | – | – |
| B4 | binds | – | – |
| B5 | – | – | stoichiometry N [2]: 2 |
| B6 | – | binds | – |
| B7 | – | binds | – |
| B8 | – | binds | – |
